From article PMC10786891, “Massively parallel profiling of RNA-targeting CRISPR-Cas13d” come the findings set out here.

First the molecules themselves.
T1: EsCas13d, nuclease-dead (Eubacterium siraeum, UniProt B0MS50, R295A;H300A;R849A;H854A)
T1 sequence: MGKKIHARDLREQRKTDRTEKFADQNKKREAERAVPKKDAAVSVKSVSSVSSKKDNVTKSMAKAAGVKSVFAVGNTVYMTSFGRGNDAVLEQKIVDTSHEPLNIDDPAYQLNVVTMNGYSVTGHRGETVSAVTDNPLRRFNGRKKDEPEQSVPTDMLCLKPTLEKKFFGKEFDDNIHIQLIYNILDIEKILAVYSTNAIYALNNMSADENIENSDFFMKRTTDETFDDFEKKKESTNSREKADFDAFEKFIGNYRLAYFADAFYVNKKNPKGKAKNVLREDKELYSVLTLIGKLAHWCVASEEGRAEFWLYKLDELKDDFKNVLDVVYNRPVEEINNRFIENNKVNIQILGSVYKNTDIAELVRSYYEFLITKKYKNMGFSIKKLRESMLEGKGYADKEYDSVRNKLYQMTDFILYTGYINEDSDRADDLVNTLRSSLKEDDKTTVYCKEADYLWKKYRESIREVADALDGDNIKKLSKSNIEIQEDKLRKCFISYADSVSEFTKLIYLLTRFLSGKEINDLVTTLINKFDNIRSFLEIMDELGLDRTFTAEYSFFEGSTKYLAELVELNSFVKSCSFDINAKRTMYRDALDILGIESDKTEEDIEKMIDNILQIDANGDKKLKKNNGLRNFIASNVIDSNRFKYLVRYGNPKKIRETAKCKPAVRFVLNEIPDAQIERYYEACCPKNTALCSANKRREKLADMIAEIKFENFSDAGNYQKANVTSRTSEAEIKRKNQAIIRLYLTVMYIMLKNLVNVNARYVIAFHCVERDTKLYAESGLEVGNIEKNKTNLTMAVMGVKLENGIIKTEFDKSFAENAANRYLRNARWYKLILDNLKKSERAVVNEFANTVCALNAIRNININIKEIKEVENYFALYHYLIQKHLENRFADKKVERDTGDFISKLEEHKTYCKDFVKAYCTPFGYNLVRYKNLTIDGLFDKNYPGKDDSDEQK

B1: target 2 MT 5'PFS GUA 3'PFS UAU (mixed)
RNA 1: CACCCGUGCAAAAUUGCAGGGGUCUAAAACCUUCUCCAAAUUGUUUCAUCCU
RNA 2: GGGAAUGGAUCCACAUCUACGAAUUCGUAAGGAUGAAACAAUUUGGAGAAGUAUAGAUCGGAAGAGCACACGU
B2: target 2 MT 5'PFS UCG 3'PFS CUC (mixed)
RNA 1: CACCCGUGCAAAAUUGCAGGGGUCUAAAACCUUCUCCAAAUUGUUUCAUCCU
RNA 2: GGGAAUGGAUCCACAUCUACGAAUUCUCGAGGAUGAAACAAUUUGGAGAAGCUCAGAUCGGAAGAGCACACGU
B3: target 2 MT 5'PFS AUU 3'PFS UGC (mixed)
RNA 1: CACCCGUGCAAAAUUGCAGGGGUCUAAAACCUUCUCCAAAUUGUUUCAUCCU
RNA 2: GGGAAUGGAUCCACAUCUACGAAUUCAUUAGGAUGAAACAAUUUGGAGAAGUGCAGAUCGGAAGAGCACACGU
B4: target 2 MT 5'PFS AAU 3'PFS ACC (mixed)
RNA 1: CACCCGUGCAAAAUUGCAGGGGUCUAAAACCUUCUCCAAAUUGUUUCAUCCU
RNA 2: GGGAAUGGAUCCACAUCUACGAAUUCAAUAGGAUGAAACAAUUUGGAGAAGACCAGAUCGGAAGAGCACACGU
B5: target 2 MT 5'PFS UUU 3'PFS ACU (mixed)
RNA 1: CACCCGUGCAAAAUUGCAGGGGUCUAAAACCUUCUCCAAAUUGUUUCAUCCU
RNA 2: GGGAAUGGAUCCACAUCUACGAAUUCUUUAGGAUGAAACAAUUUGGAGAAGACUAGAUCGGAAGAGCACACGU
B6: target 2 MT 5'PFS AGG 3'PFS AGC (mixed)
RNA 1: CACCCGUGCAAAAUUGCAGGGGUCUAAAACCUUCUCCAAAUUGUUUCAUCCU
RNA 2: GGGAAUGGAUCCACAUCUACGAAUUCAGGAGGAUGAAACAAUUUGGAGAAGAGCAGAUCGGAAGAGCACACGU
B7: target 2 MT 5'PFS GGC 3'PFS CGC (mixed)
RNA 1: CACCCGUGCAAAAUUGCAGGGGUCUAAAACCUUCUCCAAAUUGUUUCAUCCU
RNA 2: GGGAAUGGAUCCACAUCUACGAAUUCGGCAGGAUGAAACAAUUUGGAGAAGCGCAGAUCGGAAGAGCACACGU
B8: target 2 MT 5'PFS GGC 3'PFS CGG (mixed)
RNA 1: CACCCGUGCAAAAUUGCAGGGGUCUAAAACCUUCUCCAAAUUGUUUCAUCCU
RNA 2: GGGAAUGGAUCCACAUCUACGAAUUCGGCAGGAUGAAACAAUUUGGAGAAGCGGAGAUCGGAAGAGCACACGU
B9: target 2 MT 5'PFS UCU 3'PFS UUC (mixed)
RNA 1: CACCCGUGCAAAAUUGCAGGGGUCUAAAACCUUCUCCAAAUUGUUUCAUCCU
RNA 2: GGGAAUGGAUCCACAUCUACGAAUUCUCUAGGAUGAAACAAUUUGGAGAAGUUCAGAUCGGAAGAGCACACGU
B10: target 2 MT 5'PFS UUU 3'PFS ACG (mixed)
RNA 1: CACCCGUGCAAAAUUGCAGGGGUCUAAAACCUUCUCCAAAUUGUUUCAUCCU
RNA 2: GGGAAUGGAUCCACAUCUACGAAUUCUUUAGGAUGAAACAAUUUGGAGAAGACGAGAUCGGAAGAGCACACGU
B11: target 2 MT 5'PFS CUU 3'PFS AUG (mixed)
RNA 1: CACCCGUGCAAAAUUGCAGGGGUCUAAAACCUUCUCCAAAUUGUUUCAUCCU
RNA 2: GGGAAUGGAUCCACAUCUACGAAUUCCUUAGGAUGAAACAAUUUGGAGAAGAUGAGAUCGGAAGAGCACACGU
B12: target 2 MT 5'PFS ACG 3'PFS ACA (mixed)
RNA 1: CACCCGUGCAAAAUUGCAGGGGUCUAAAACCUUCUCCAAAUUGUUUCAUCCU
RNA 2: GGGAAUGGAUCCACAUCUACGAAUUCACGAGGAUGAAACAAUUUGGAGAAGACAAGAUCGGAAGAGCACACGU
B13: target 2 MT 5'PFS ACG 3'PFS ACC (mixed)
RNA 1: CACCCGUGCAAAAUUGCAGGGGUCUAAAACCUUCUCCAAAUUGUUUCAUCCU
RNA 2: GGGAAUGGAUCCACAUCUACGAAUUCACGAGGAUGAAACAAUUUGGAGAAGACCAGAUCGGAAGAGCACACGU
B14: target 2 MT 5'PFS ACG 3'PFS ACG (mixed)
RNA 1: CACCCGUGCAAAAUUGCAGGGGUCUAAAACCUUCUCCAAAUUGUUUCAUCCU
RNA 2: GGGAAUGGAUCCACAUCUACGAAUUCACGAGGAUGAAACAAUUUGGAGAAGACGAGAUCGGAAGAGCACACGU
B15: target 2 MT 5'PFS CAU 3'PFS CAC (mixed)
RNA 1: CACCCGUGCAAAAUUGCAGGGGUCUAAAACCUUCUCCAAAUUGUUUCAUCCU
RNA 2: GGGAAUGGAUCCACAUCUACGAAUUCCAUAGGAUGAAACAAUUUGGAGAAGCACAGAUCGGAAGAGCACACGU
B16: target 2 MT 5'PFS AGG 3'PFS AGA (mixed)
RNA 1: CACCCGUGCAAAAUUGCAGGGGUCUAAAACCUUCUCCAAAUUGUUUCAUCCU
RNA 2: GGGAAUGGAUCCACAUCUACGAAUUCAGGAGGAUGAAACAAUUUGGAGAAGAGAAGAUCGGAAGAGCACACGU
B17: target 2 MT 5'PFS ACU 3'PFS UCU (mixed)
RNA 1: CACCCGUGCAAAAUUGCAGGGGUCUAAAACCUUCUCCAAAUUGUUUCAUCCU
RNA 2: GGGAAUGGAUCCACAUCUACGAAUUCACUAGGAUGAAACAAUUUGGAGAAGUCUAGAUCGGAAGAGCACACGU
B18: target 2 MT 5'PFS AAU 3'PFS ACG (mixed)
RNA 1: CACCCGUGCAAAAUUGCAGGGGUCUAAAACCUUCUCCAAAUUGUUUCAUCCU
RNA 2: GGGAAUGGAUCCACAUCUACGAAUUCAAUAGGAUGAAACAAUUUGGAGAAGACGAGAUCGGAAGAGCACACGU
B19: target 2 MT 5'PFS ACG 3'PFS ACU (mixed)
RNA 1: CACCCGUGCAAAAUUGCAGGGGUCUAAAACCUUCUCCAAAUUGUUUCAUCCU
RNA 2: GGGAAUGGAUCCACAUCUACGAAUUCACGAGGAUGAAACAAUUUGGAGAAGACUAGAUCGGAAGAGCACACGU
B20: target 2 MT 5'PFS CAU 3'PFS CAA (mixed)
RNA 1: CACCCGUGCAAAAUUGCAGGGGUCUAAAACCUUCUCCAAAUUGUUUCAUCCU
RNA 2: GGGAAUGGAUCCACAUCUACGAAUUCCAUAGGAUGAAACAAUUUGGAGAAGCAAAGAUCGGAAGAGCACACGU
B21: target 2 MT 5'PFS UUU 3'PFS ACA (mixed)
RNA 1: CACCCGUGCAAAAUUGCAGGGGUCUAAAACCUUCUCCAAAUUGUUUCAUCCU
RNA 2: GGGAAUGGAUCCACAUCUACGAAUUCUUUAGGAUGAAACAAUUUGGAGAAGACAAGAUCGGAAGAGCACACGU
B22: target 2 MT 5'PFS GGC 3'PFS CGA (mixed)
RNA 1: CACCCGUGCAAAAUUGCAGGGGUCUAAAACCUUCUCCAAAUUGUUUCAUCCU
RNA 2: GGGAAUGGAUCCACAUCUACGAAUUCGGCAGGAUGAAACAAUUUGGAGAAGCGAAGAUCGGAAGAGCACACGU
B23: target 2 MT 5'PFS UCU 3'PFS UUU (mixed)
RNA 1: CACCCGUGCAAAAUUGCAGGGGUCUAAAACCUUCUCCAAAUUGUUUCAUCCU
RNA 2: GGGAAUGGAUCCACAUCUACGAAUUCUCUAGGAUGAAACAAUUUGGAGAAGUUUAGAUCGGAAGAGCACACGU
B24: target 2 MT 5'PFS UCG 3'PFS CUG (mixed)
RNA 1: CACCCGUGCAAAAUUGCAGGGGUCUAAAACCUUCUCCAAAUUGUUUCAUCCU
RNA 2: GGGAAUGGAUCCACAUCUACGAAUUCUCGAGGAUGAAACAAUUUGGAGAAGCUGAGAUCGGAAGAGCACACGU
B25: target 2 MT 5'PFS UUU 3'PFS ACC (mixed)
RNA 1: CACCCGUGCAAAAUUGCAGGGGUCUAAAACCUUCUCCAAAUUGUUUCAUCCU
RNA 2: GGGAAUGGAUCCACAUCUACGAAUUCUUUAGGAUGAAACAAUUUGGAGAAGACCAGAUCGGAAGAGCACACGU
B26: target 1 A16U,G17U (mixed)
RNA 1: CACCCGUGCAAAAAUGCAGGGGUCUAAAACUGAGCGGAUAACCUCUCUAUGG
RNA 2: GGGAAUGGAUCCACAUCUACGAAUUCGUACCAUAUUGAGGUUAUCCGCUCACCGAGAUCGGAAGAGCACACGU
B27: target 1 insG 3' of 20,insU 3' of 12 (mixed)
RNA 1: CACCCGUGCAAAAAUGCAGGGGUCUAAAACUGAGCGGAUAACCUCUCUAUGG
RNA 2: GGGAAUGGAUCCACAUCUACGAAUUCGUACCAGUAGAGAGGUUUAUCCGCUCACCGAGAUCGGAAGAGCACACGU

The target in this data set is T1, EsCas13d, nuclease-dead. The data set is described as follows: crRNA (strand 1, pre-loaded); Mg2+; 40 mM Tris-HCl pH 7.5, 150 mM NaCl, 6 mM MgCl2, 1 mM DTT, 0.1% Tween-20, 0.2 mg/ml BSA; 25 C; 10 min per concentration, then washed. The settings on record: tags: His6-TwinStrep-SUMO cleaved; N-terminal SNAP kept (SNAP-Surface 488); label: 3' end held by stalled T7 RNA polymerase.
The term Kd denotes a measure of binding affinity in units of concentration. The low end stands for a tighter complex, the high end for a looser complex. B1 came in with a Kd of 7.8 ± 0.7 nM.

Consider B2, for which the affinity, expressed as Kd, was 23 ± 6 nM.

Regarding B3, the Kd was 9.7 ± 1.4 nM.

The molecule B4 showed a dissociation constant Kd of 10.5 ± 1.6 nM.

As to B5, the Kd came to 9.1 ± 0.8 nM.

Molecule B6 displayed a Kd of 4.8 ± 0.5 nM.

The molecule B7 showed an equilibrium dissociation constant (Kd) of 12.5 ± 1.1 nM.

For B8, binding was put at a Kd of 14.1 ± 1.7 nM.

B9 gave a Kd of 18 ± 4 nM.

B10: binding was put at a Kd of 10.6 ± 2 nM.

Turning to B11, the affinity, expressed as Kd, was 4.1 ± 0.4 nM.

Consider B12, for which binding was put at a Kd of 9.7 ± 2.4 nM.

Consider B13, for which the equilibrium dissociation constant (Kd) was approximately 20 nM.

B14: the Kd was 15 ± 4 nM.

B15 came in with an equilibrium dissociation constant (Kd) of 4.6 ± 0.8 nM.

In turn, B16 displayed an equilibrium dissociation constant (Kd) of 3.4 ± 0.4 nM.

In the case of B17, binding was characterised by a dissociation constant (Kd) of 8.4 ± 0.9 nM.

Take B18: the Kd stood at 5.5 ± 0.6 nM.

Take B19: the Kd worked out at 17 ± 5 nM.

Take B20: the Kd worked out at 5.2 ± 0.9 nM.

B21 gave a Kd of 6.1 ± 0.7 nM.

B22: binding was put at a Kd of 11.4 ± 1.2 nM.

B23: the affinity, expressed as Kd, was 10.3 ± 1 nM.

The molecule B24 registered a Kd of 40 ± 9 nM.

Molecule B25 displayed a Kd of 14.1 ± 3.4 nM.

B26 came in with a dissociation constant (Kd) of 22 ± 2.1 nM.

B27 registered a dissociation constant (Kd) of 25 ± 4 nM.
